The values below come from PMC11415397, “The Alpha-Synuclein Gene (SNCA) is a Genomic Target of Methyl-CpG Binding Protein 2 (MeCP2)—Implications for Parkinson’s Disease and Rett Syndrome”.

Data set [1] concerns the target T1, MeCP2 R255X (UniProt P51608 1-254). The data set is described as follows: EMSA; strongest shift, already at 30 nM; 10 mM Tris pH 7.5, 1 mM EDTA, 100 mM KCl, 100 uM DTT, 5% glycerol, 10 ug/ml BSA, 30 min room temperature; 50 fmol probe in 5 ul; MeCP2 30-75 (nmol in Methods and legend, nM in Results). As to conditions: protein: recombinant; tags: His; label: IRDye700 at 5' of LUEGO (S27); three strands: S27 and S25 lie side by side (nick) on S26; blunt.

Data set [2] has as its target MeCP2 wild type (UniProt P51608 1-486). The data set is described as follows: EMSA; shift from 30 nM; 10 mM Tris pH 7.5, 1 mM EDTA, 100 mM KCl, 100 uM DTT, 5% glycerol, 10 ug/ml BSA, 30 min room temperature; 50 fmol probe in 5 ul; MeCP2 30-75 (nmol in Methods and legend, nM in Results). As to conditions: protein: recombinant; tags: His; label: IRDye700 at 5' of LUEGO (S27); three strands: S27 and S23 lie side by side (nick) on S24; blunt. For orientation: Mobility shift assays separate free from complexed probe on a gel.

The target of data set [3] is T1, MeCP2 R255X. The description is as above. As to conditions: protein: recombinant; tags: His; label: IRDye700 at 5' of LUEGO (S27); three strands: S27 and S23 lie side by side (nick) on S24; blunt.

B1: SNCA intron 1 CpG2 probe, methylated (dsDNA)
DNA 1: GTGCCCTGGTCTGG
DNA 2: GCTGAGAGATTAGGCTGCTTCTCCGGGATCCGC
DNA 3: GCGGATCCCGGAGAAGCAGCCTAATCTCTCAGCCCAGACCAGGGCAC
modifications: CpG 5mC, in vitro methylated (enzyme for the probe not stated in EMSA section)
On to B1, for which the binding result in data set [1] is on record as “binds”.

B2: SNCA intron 1 CpG1 probe, methylated (dsDNA)
DNA 1: GTGCCCTGGTCTGG
DNA 2: CTGGCTTTCGTCCTGCTTCTGATATTCCCTTCTC
DNA 3: GAGAAGGGAATATCAGAAGCAGGACGAAAGCCAGCCAGACCAGGGCAC
modifications: CpG 5mC, in vitro methylated (enzyme for the probe not stated in EMSA section)
Take B2: the binding result in data set [2] and in data set [3] was “binds” each time.
